Data as given in patent publication US20250304927A1, “PRO-PEPTIDE VARIANTS FOR MODULATING ACTIVITY OF TRANSGLUTAMINASES” (CURIE CO. INC., priority 2022, published 2025).

T1: thermostable variant of Streptomyces mobaraensis transglutaminase (Streptomyces mobaraensis, UniProt P81453 79-407)
T1 sequence: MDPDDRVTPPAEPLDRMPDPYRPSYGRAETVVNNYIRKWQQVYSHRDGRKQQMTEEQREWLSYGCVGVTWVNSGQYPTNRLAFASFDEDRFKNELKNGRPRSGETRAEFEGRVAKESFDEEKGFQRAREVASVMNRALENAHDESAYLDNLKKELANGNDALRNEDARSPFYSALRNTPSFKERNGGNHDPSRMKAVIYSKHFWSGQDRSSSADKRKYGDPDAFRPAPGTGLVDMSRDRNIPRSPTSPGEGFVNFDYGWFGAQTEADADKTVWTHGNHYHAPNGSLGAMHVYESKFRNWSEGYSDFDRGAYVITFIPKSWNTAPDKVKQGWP


Tests used:
Assay in all cases: cell-based or functional assay
[1] = molecular target: T1, thermostable variant of Streptomyces …
[2] = molecular target: T1, thermostable variant of Streptomyces …; remark: listed apart in the source
[3] = molecular target: T1, thermostable variant of Streptomyces …; remark: listed apart in the source

| Binder | Improvement in pH responsiveness of inhibitory peptide relative to WT [1] [fold] | Reduction in binding affinity of inhibitory peptide relative to WT [2] [fold] | Improvement in binding affinity of inhibitory peptide relative to WT [3] [fold] |
| --- | --- | --- | --- |
| MDNGAGEETKSYAETYRLTADDVAN [pro-peptide truncation variant ΔI26-P46] | > 1.2 | > 1.2 | – |
| MDNGAGEGTKSYAETYRLTADDVANINALNESAPAASSAGPSFRAP [pro-peptide variant E8G] | > 1.2 | > 1.2 | – |
| MDNGAGEETKSYAETYRLTADDVENINALNESAPAASSAGPSFRAP [pro-peptide variant A24E] | – | > 1.2 | – |
| MDNGAGEYTKSYAETYRLTADDVANINALNESAPAASSAGPSFRAP [pro-peptide variant E8Y] | > 1.2 | > 1.2 | – |
| MDNGAGGETKSYAETYRLTADDVANINALNESAPAASSAGPSFRAP [pro-peptide variant E7G] | > 5 | > 1.2 | – |
| MDNGAGEETKSYACTYRLTADDVANINALNESAPAASSAGPSFRAP [pro-peptide variant E14C] | – | > 1.2 | – |
| MDNGAGEETKSPAETYRLTADDVANINALNESAPAASSAGPSFRAP [pro-peptide variant Y12P] | – | > 1.2 | – |
| MDNGAGEETKHYAETYRLTADDVANINALNESAPAASSAGPSFRAP [pro-peptide variant S11H] | – | > 1.2 | – |
| MDNGAGEETKSSAETYRLTADDVANINALNESAPAASSAGPSFRAP [pro-peptide variant Y12S] | – | > 5 | – |
| MDNGAGEETKSYAETYRLTADDVANINALNESAPAASSAGPSFRAI [pro-peptide variant P46I] | > 1.2 | – | > 1.2 |
| MDNGAGEETKSYAETYRLTADDVANINALNESAPAASSAGPSFRAQ [pro-peptide variant P46Q] | > 1.2 | – | > 1.2 |
| MDNGAGEETKSYAETYRLTADDVANINALNESAPAASDAGPSFRAP [pro-peptide variant S38D] | – | > 1.2 | – |
| MDNGAGEETKSYAETYRLTADQVANINALNESAPAASSAGPSFRAP [pro-peptide variant D22Q] | – | > 1.2 | – |
| MDNGAGEETKSYAETYRLTADDVANINALNESAPAASSAGPSFRAL [pro-peptide variant P46L] | > 1.2 | – | > 1.2 |
| MDNGAGEETKSYAETYRLTADDVANINALNESAPAASYAGPSFRAP [pro-peptide variant S38Y] | – | > 1.2 | – |
| MDNGAGEETKSYAETYRSTADDVANINALNESAPAASSAGPSFRAP [pro-peptide variant L18S] | – | > 1.2 | – |
| MDNGAGEETKSYAETYRLTADDVANINALNESAPAASSAGPSFRAW [pro-peptide variant P46W] | > 1.2 | – | > 1.2 |
| MDNGAGEETCSYAETYRLTADDVANINALNESAPAASSAGPSFRAP [pro-peptide variant K10C] | – | > 1.2 | – |
| MDNGAGEETKSYAATYRLTADDVANINALNESAPAASSAGPSFRAP [pro-peptide variant E14A] | – | > 1.2 | – |
| MDNGAGEETKSYAETYRLTADDVANINALNESAPAASSAGPSFRAE [pro-peptide variant P46E] | > 1.2 | – | > 1.2 |
| MDNGAGEETKSYAETYRETADDVANINALNESAPAASSAGPSFRAP [pro-peptide variant L18E] | – | > 1.2 | – |
| MDNGAGEETGSYAETYRLTADDVANINALNESAPAASSAGPSFRAP [pro-peptide variant K10G] | > 5 | > 1.2 | – |
| MDNGAGEETKSYAETYRLTADDVANINALNESAPAASSAGPSFRAC [pro-peptide variant P46C] | > 1.2 | – | > 1.2 |

| Binder | Improvement in pH responsiveness of inhibitory peptide relative to WT [1] [fold] | Reduction in binding affinity of inhibitory peptide relative to WT [2] [fold] | Improvement in binding affinity of inhibitory peptide relative to WT [3] [fold] |
| --- | --- | --- | --- |
| MDNGAGEETKSYAETYRLTADRVANINALNESAPAASSAGPSFRAP [pro-peptide variant D22R] | – | > 1.2 | – |
| MDNGAGEETKSYAETYRLTADDVANINALNESAPAASSAGPSFRAR [pro-peptide variant P46R] | > 1.2 | – | > 1.2 |
| MDNGAGEETKSYAETYRLTADDVANANALNESAPAASSAGPSFRAP [pro-peptide variant I26A] | – | > 1.2 | – |
| MDNGAGEETKSYAETYRLTADPVANINALNESAPAASSAGPSFRAP [pro-peptide variant D22P] | – | > 1.2 | – |
| MDNGAGEETKSYAETYRLTADDVANINALNESAPAASSAGPSFRAV [pro-peptide variant P46V] | > 1.2 | – | > 1.2 |
| MDNGAGEETKSYAETYRLTADDVANINALNESAPAASSAGPSFRAN [pro-peptide variant P46N] | > 5 | – | > 1.2 |
| MDNGAGEETKSYAETYRLTADDVANENALNESAPAASSAGPSFRAP [pro-peptide variant I26E] | – | > 1.2 | – |
| MDNGAGEETKSYAETYRLTADYVANINALNESAPAASSAGPSFRAP [pro-peptide variant D22Y] | – | > 1.2 | – |
| MDNGAGEETKSYAETYRLTADDVANINALNESAPAASSAGPSFRAS [pro-peptide variant P46S] | > 1.2 | – | > 1.2 |
| MDNGAGEETKYYAETYRLTADDVANINALNESAPAASSAGPSFRAP [pro-peptide variant S11Y] | – | > 1.2 | – |
| MDNGAGEETKSYAETYRLTADDVANINALNESAPAASSAGPSFRAD [pro-peptide variant P46D] | > 1.2 | – | > 1.2 |
| MDNGAGEEQKSYAETYRLTADDVANINALNESAPAASSAGPSFRAP [pro-peptide variant T9Q] | > 1.2 | > 1.2 | – |
| MDNGAGEETKSYAETYRLTADDVANINALNESAPAASPAGPSFRAP [pro-peptide variant S38P] | – | > 1.2 | – |
| MDNGAGEETKSYAETYRLTADDVANINALNESAPAASSAGPSFRAK [pro-peptide variant P46K] | > 1.2 | – | > 1.2 |
| MDNGAGEETDSYAETYRLTADDVANINALNESAPAASSAGPSFRAP [pro-peptide variant K10D] | > 1.2 | > 1.2 | – |
| MDNGAGEETKGYAETYRLTADDVANINALNESAPAASSAGPSFRAP [pro-peptide variant S11G] | – | > 5 | – |
| MDNGAGEETKSYADTYRLTADDVANINALNESAPAASSAGPSFRAP [pro-peptide variant E14D] | – | > 1.2 | – |
| MDNGAGEETKSYAETYRLTADDVPNINALNESAPAASSAGPSFRAP [pro-peptide variant A24P] | – | > 5 | – |
| MDNGAGEETKSYAHTYRLTADDVANINALNESAPAASSAGPSFRAP [pro-peptide variant E14H] | – | > 1.2 | – |
| MDNGAGEETKSYAETYRLTAD [pro-peptide truncation variant ΔD22-P46] | – | > 1.2 | – |
| MDNGAGEETKS [pro-peptide truncation variant ΔY12-P46] | > 1.2 | > 1.2 | – |
| MDNGAGEETKSYAETYR [pro-peptide truncation variant ΔL18-P46] | > 5 | > 1.2 | – |
